To fix the notation:
B1: Transcriptional coactivator yorkie (Drosophila melanogaster (Fruit fly)), Q45VV3 (parent)
chain: MLTTMSASSNTNSLIEKEIDDEDMLSPIKSNNLVVRVNQDTDDNLQALFDSVLNPGDAKRPLQLPLRMRKLPNSFFTPPAPSHSRANSADSTYDAGSQSSINIGNKASIVQQPDGQSPIAAIPQLQIQPSPQHSRLAIHHSRARSSPASLQQNYNVRARSDAAAANNPNANPSSQQQPAGPTFPENSAQEFPSGAPASSAIDLDAMNTCMSQDIPMSMQTVHKKQRSYDVISPIQLNRQLGALPPGWEQAKTNDGQIYYLNHTTKSTQWEDPRIQYRQQQQILMAERIKQNDVLQTTKQTTTSTIANNLGPLPDGWEQAVTESGDLYFINHIDRTTSWNDPRMQSGLSVLDCPDNLVSSLQIEDNLCSNLFNDAQAIVNPPSSHKPDDLEWYKIN
partner: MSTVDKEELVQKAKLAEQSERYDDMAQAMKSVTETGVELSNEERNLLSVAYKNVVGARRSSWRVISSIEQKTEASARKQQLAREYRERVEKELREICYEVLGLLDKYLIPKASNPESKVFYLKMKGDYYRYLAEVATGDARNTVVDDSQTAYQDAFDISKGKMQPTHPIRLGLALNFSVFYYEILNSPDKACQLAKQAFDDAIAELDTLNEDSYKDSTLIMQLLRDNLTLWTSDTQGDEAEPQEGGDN

Variants of B1 are the subject of the experiment. Particulars: with 1433z_drome 14-3-3zeta.
Take S145A: the “effect of a mutation on the interaction” value is reported as “decreasing interaction”.

The values are drawn from IntAct's records for PubMed 17889654.
